Measured values reported in PMC9354671, “Novel interaction interfaces mediate the interaction between the NEIL1 DNA glycosylase and mitochondrial transcription factor A” (Frontiers in Cell and Developmental Biology, 2022).

Columns and labels:
Conditions in all cases: both partners purified
[1] = target: T1, NEIL1-Δ100, truncated NEIL1 lacking 100 residues from the disordered C-terminal region (human, UniProt Q96FI4 1-290); assay: pull-down; reverse: Flag-tagged TFAM held on anti-FLAG M2 magnetic beads, NEIL1-FL or NEIL1-Δ100 as prey; with and without DNA; eluted with 3X Flag peptide, SDS-PAGE
T1 construct: NEIL1, human, C-terminal 100 residues deleted; Prakash et al., 2017; Sharma et al., 2018; also called NEIL1-∆100; source: E. coli Rosetta 2, purified
T1 sequence (Q96FI4 1-290, stated change not applied): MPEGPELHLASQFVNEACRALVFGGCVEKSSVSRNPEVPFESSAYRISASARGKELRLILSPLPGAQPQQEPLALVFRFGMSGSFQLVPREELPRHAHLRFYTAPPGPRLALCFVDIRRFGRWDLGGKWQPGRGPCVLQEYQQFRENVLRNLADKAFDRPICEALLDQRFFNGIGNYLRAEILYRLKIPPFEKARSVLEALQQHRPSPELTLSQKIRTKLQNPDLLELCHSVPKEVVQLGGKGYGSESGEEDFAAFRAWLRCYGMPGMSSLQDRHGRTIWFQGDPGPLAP

[2] = target: T2, full-length NEIL1 (NEIL1-FL), C-terminal His-tagged (human, UniProt Q96FI4 1-390); assay: far-Western, overlay or dot blot; 50 pmol NEIL1 polypeptides separated by SDS-PAGE, on PVDF, denatured in 6M guanidine HCl and refolded; incubated with purified TFAM overnight; detected with anti-TFAM antibody
T2 construct: NEIL1 DNA glycosylase, human, full length (390 residues by the printed tail aa 290-390; theoretical mass with tag 44.75 kDa); pET30a plasmid from the Doublié and Wallace laboratories; Called 'untagged' in the Flag pull-down, meaning without Flag; also called NEIL1 DNA glycosylase; source: E. coli Rosetta 2, purified (Talon beads, HiTrap SPFF ion exchange, Superdex 200); not shown: His tag, …
T2 sequence (Q96FI4 whole entry, the tested form may be a part): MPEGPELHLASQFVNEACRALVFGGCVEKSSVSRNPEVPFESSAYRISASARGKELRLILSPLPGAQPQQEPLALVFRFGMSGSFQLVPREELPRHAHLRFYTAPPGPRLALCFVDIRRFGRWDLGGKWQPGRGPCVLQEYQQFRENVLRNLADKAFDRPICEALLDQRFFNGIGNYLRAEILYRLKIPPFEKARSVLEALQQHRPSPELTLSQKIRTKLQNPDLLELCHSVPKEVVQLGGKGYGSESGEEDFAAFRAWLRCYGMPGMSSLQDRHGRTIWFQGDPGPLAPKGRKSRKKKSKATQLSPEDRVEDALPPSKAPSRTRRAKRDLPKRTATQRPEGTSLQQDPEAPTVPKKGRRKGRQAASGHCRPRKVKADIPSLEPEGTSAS

[3] = target: T1, NEIL1-Δ100, truncated NEIL1 lacking 100 …; assay: as above
NEIL1-∆40 = target: T3, NEIL1-∆40 (human, UniProt Q96FI4 1-350); assay: as above
T3 construct: NEIL1, human, C-terminal 40 residues deleted; source: E. coli Rosetta 2, purified
T3 sequence (Q96FI4 1-350): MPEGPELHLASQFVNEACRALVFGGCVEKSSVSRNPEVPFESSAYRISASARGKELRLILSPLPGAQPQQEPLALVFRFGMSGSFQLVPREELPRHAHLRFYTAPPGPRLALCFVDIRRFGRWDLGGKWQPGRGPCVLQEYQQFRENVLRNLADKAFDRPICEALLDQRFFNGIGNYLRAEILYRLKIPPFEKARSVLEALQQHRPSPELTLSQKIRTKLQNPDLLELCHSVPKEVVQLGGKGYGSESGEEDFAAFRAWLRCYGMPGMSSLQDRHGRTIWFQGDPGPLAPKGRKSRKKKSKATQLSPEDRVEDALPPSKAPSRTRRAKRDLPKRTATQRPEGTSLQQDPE

NEIL1-∆56 = target: T4, NEIL1-∆56 (human, UniProt Q96FI4 1-334); assay: as above
T4 construct: NEIL1, human, C-terminal 56 residues deleted; source: E. coli Rosetta 2, purified
T4 sequence (Q96FI4 1-334): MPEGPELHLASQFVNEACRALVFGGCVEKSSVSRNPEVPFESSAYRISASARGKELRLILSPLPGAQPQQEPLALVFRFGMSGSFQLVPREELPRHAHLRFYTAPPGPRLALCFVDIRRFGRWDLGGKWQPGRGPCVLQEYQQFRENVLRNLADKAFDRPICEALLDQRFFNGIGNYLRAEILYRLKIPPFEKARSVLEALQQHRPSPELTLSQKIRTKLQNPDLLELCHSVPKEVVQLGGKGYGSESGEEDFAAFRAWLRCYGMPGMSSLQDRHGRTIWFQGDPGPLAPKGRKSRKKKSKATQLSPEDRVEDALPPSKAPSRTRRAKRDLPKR

NEIL1-∆78 = target: T5, NEIL1-∆78 (human, UniProt Q96FI4 1-312); assay: as above
T5 construct: NEIL1, human, C-terminal 78 residues deleted; source: E. coli Rosetta 2, purified
T5 sequence (Q96FI4 1-312): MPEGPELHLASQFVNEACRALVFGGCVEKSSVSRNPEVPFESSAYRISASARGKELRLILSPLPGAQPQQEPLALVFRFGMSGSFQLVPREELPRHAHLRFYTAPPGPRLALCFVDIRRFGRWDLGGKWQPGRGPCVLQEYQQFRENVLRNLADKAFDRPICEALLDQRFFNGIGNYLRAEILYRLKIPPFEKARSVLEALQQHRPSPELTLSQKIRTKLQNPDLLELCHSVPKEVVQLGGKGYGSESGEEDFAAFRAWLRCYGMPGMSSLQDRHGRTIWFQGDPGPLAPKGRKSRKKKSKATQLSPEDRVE

Measured: binding result

B1: Flag-tagged TFAM (natural protein, UniProt Q00059 43-246, looked up)
chain: SSVLASCPKKPVSSYLRFSKEQLPIFKAQNPDAKTTELIRRIAQRWRELPDSKKKIYQDAYRAEWQVYKEEISRFKEQLTPSQIMSLEKEIMDKHLKRKAMTKKKELTLLGKPKRPRSAYNVYVAERFQEAKGDSPQEKLKTVKENWKNLSDSEKELYIQHAKEDETRYHNEMKSWEEQMIEVGRKDLLRRTIKKQRKYGAEEC
notes: also called C-terminal Flag-tagged purified TFAM; source: E. coli, purified; not shown: Flag, C-terminal, kept
binds: [1]

B2: mitochondrial transcription factor A (TFAM) lacking the mitochondrial targeting sequence (natural protein, UniProt Q00059 43-246, looked up)
chain: B1 chain
notes: theoretical MW 25.6 kDa; Printed domain limits: HMG-box A 43-122, linker 122-152, HMG-box B 152-222, C-terminal tail 222-246; Subcloned into pET30a from a full-length ORF plasmid; also called full-length TFAM monomer (lacking the N-terminal MTS); source: E. coli, purified (as Ngo et al., 2011)
binds: [2] | [3] | NEIL1-∆40 | NEIL1-∆56 | NEIL1-∆78
